The values that follow come from PMC4613674.

The target in the experiment is MBP–Cas5–Cas7 complex (Methanothermobacter thermautotrophicus) (Methanothermobacter thermautotrophicus ΔH). In words: pull-down; MBP–Cas5–Cas7 (20 μg) held on amylose resin, His6–Cas8′ (20 μg) added, final volume 500 μl, 2–4 h at 4°C; 20 mM Tris/HCl pH 8.0, 150 mM NaCl, 1 mM EDTA, 1% Tween; western blots with anti-His6 and anti-MBP; with or without pre-incubation of Cas5–Cas7 with crRNA1.

“N-terminal hexahistidine-tagged Mth Cas8′ (natural protein)” had a percent of input bound of less than 10%.
